Reference: US20180064827

Key:
Test in all cases: cell_activity
ZFN 60334 (synthetic) = conditions: pair with 60137, K562
ZFN 60254 (synthetic) = conditions: pair with 60259, K562; N7a version 60256 gave 74.32
ZFN 60501 (synthetic) = conditions: pair with 67458, HepG2, 40 ug/mL
ZFN 64066 (synthetic) = conditions: pair with 60502, HepG2, 40 ug/mL
ZFN 67451 (synthetic) = conditions: pair with 60502, HepG2, 40 ug/mL
ZFN 60289 (synthetic) = conditions: pair with 60287, K562
ZFN 69912 (synthetic) = conditions: pair with 69909, 0.1 ug mRNA, MK2
ZFN 69913 (synthetic) = conditions: pair with 69909, 0.1 ug mRNA, MK2
ZFN 60043 (synthetic) = conditions: pair with 60045, K562
ZFN 60416 (synthetic) = conditions: pair with 64866, Hepa1-6
ZFN 64848 (synthetic) = conditions: pair with 64866, Hepa1-6
ZFN 64859 (synthetic) = conditions: pair with 64869, Hepa1-6
ZFN 60502 (synthetic) = conditions: pair with 64066, HepG2, 40 ug/mL
ZFN 64080 (synthetic) = conditions: pair with 60501, HepG2, 40 ug/mL
ZFN 67458 (synthetic) = conditions: pair with 60501, HepG2, 40 ug/mL
ZFN 60417 (synthetic) = conditions: pair with 64859, Hepa1-6
ZFN 64866 (synthetic) = conditions: pair with 64859, Hepa1-6
ZFN 64869 (synthetic) = conditions: pair with 64859, Hepa1-6
ZFN 25264 (synthetic) = conditions: pair with 25277, K562, 200 ng
ZFN 58781 (synthetic) = conditions: pair with 65086, Hepa1-6
ZFN 65094 (synthetic) = conditions: pair with 65086, Hepa1-6
ZFN 65095 (synthetic) = conditions: pair with 65086, Hepa1-6
ZFN 65098 (synthetic) = conditions: pair with 65086, Hepa1-6
ZFN 60413 (synthetic) = conditions: pair with 64944, Hepa1-6
ZFN 64951 (synthetic) = conditions: pair with 64946, Hepa1-6
ZFN 64952 (synthetic) = conditions: pair with 64944, Hepa1-6
ZFN 60750 (synthetic) = conditions: pair with 67495, HepG2, 40 ug/mL
ZFN 69915 (synthetic) = conditions: pair with 69922, 0.1 ug mRNA, MK2
ZFN 69916 (synthetic) = conditions: pair with 69922, 0.1 ug mRNA, MK2
ZFN 69918 (synthetic) = conditions: pair with 69922, 0.1 ug mRNA, MK2
ZFN 69919 (synthetic) = conditions: pair with 69922, 0.1 ug mRNA, MK2
ZFN 69920 (synthetic) = conditions: pair with 69922, 0.1 ug mRNA, MK2
ZFN 60045 (synthetic) = conditions: pair with 60043, K562
ZFN 60461 (synthetic) = conditions: pair with 64971, Hepa1-6
ZFN 64982 (synthetic) = conditions: pair with 64971, Hepa1-6; finger linker variant 64972 gave 89.0
ZFN 64983 (synthetic) = conditions: pair with 64971, Hepa1-6
ZFN 60751 (synthetic) = conditions: pair with 64347, HepG2, 40 ug/mL
ZFN 67493 (synthetic) = conditions: pair with 60750, HepG2, 40 ug/mL
ZFN 67495 (synthetic) = conditions: pair with 60750, HepG2, 40 ug/mL
ZFN 60133 (synthetic) = conditions: pair with 60134, K562

GGTACCGGGCGGATGAATACCAGCCCCC (double strand) [human PCSK9 60334 site]
activity (ZFN 60334 (synthetic)): 67.9 % indel

CGCTGCCGGCAACTTCCGGGACGATGCC (double strand) [human PCSK9 60254 site]
activity (ZFN 60254 (synthetic)): 75.7 % indel

GAGCAGACGATGAGAAGCCATCCTGCCA (double strand) [human TTR 60501 site]
activity (ZFN 60501 (synthetic)): 47.6 % indel | activity (ZFN 64066 (synthetic)): 37.3 % indel | activity (ZFN 67451 (synthetic)): 36.6 % indel

AGAGAAGTGGATCAGTCTCTGCCTCAAC (double strand) [human PCSK9 60289 site]
activity (ZFN 60289 (synthetic)): 73.1 % indel

GTGGTGCTGAAGGAGGAGACCCACCGCT (double strand) [M. mulatta PCSK9 exon 2 right]
activity (ZFN 69912 (synthetic)): 58.7 % indel | activity (ZFN 69913 (synthetic)): 53.4 % indel

AGGATCCGTGGAGGTTGCCTGGCACCTA (double strand) [human PCSK9 60043 site]
activity (ZFN 60043 (synthetic)): 65.4 % indel

CAGAGCATCCCATGGAACCTGGAGCGAA (double strand) [mouse PCSK9 site B left]
activity (ZFN 60416 (synthetic)): 35.7 % indel | activity (ZFN 64848 (synthetic)): 73.6 % indel | activity (ZFN 64859 (synthetic)): 82.4 % indel

CTGCCTTGCTGGACTGGTATTTGTGTCT (double strand) [human TTR 60502 site]
activity (ZFN 60502 (synthetic)): 37.3 % indel | activity (ZFN 64080 (synthetic)): 47 % indel | activity (ZFN 67458 (synthetic)): 47.6 % indel

CTGGTGCCATGCTGGGATAATTCGCTCC (double strand) [mouse PCSK9 site B right]
activity (ZFN 60417 (synthetic)): 53 % indel | activity (ZFN 64866 (synthetic)): 79 % indel | activity (ZFN 64869 (synthetic)): 82.4 % indel

GTCGATGGTCAGCACAGCCTTATGCACG (double strand) [SERPINA1 25264 site]
activity (ZFN 25264 (synthetic)): 40.9 % indel

GTGGTGCTGATGGAGGAGACCCAGAGGC (double strand) [mouse PCSK9 site J right]
activity (ZFN 58781 (synthetic)): 62.3 % indel | activity (ZFN 65094 (synthetic)): 77.8 % indel | activity (ZFN 65095 (synthetic)): 76.7 % indel | activity (ZFN 65098 (synthetic)): 77.2 % indel

CACATGGGGCAACTTCAGGGCCTACAGA (double strand) [mouse PCSK9 site E right]
activity (ZFN 60413 (synthetic)): 41.4 % indel | activity (ZFN 64951 (synthetic)): 51.3 % indel | activity (ZFN 64952 (synthetic)): 49.1 % indel

CTTACTGGAAGGCACTTGGCATCTCCCC (double strand) [human TTR 60750 site]
activity (ZFN 60750 (synthetic)): 61.8 % indel

GTGGGACATCGCAGGCTGCTGCCCACGT (double strand) [M. mulatta PCSK9 exon 7 left]
activity (ZFN 69915 (synthetic)): 78 % indel | activity (ZFN 69916 (synthetic)): 81.4 % indel | activity (ZFN 69918 (synthetic)): 71.2 % indel | activity (ZFN 69919 (synthetic)): 76.1 % indel | activity (ZFN 69920 (synthetic)): 72.1 % indel

TACGTGGTGGTGCTGAAGGAGGAGACCC (double strand) [human PCSK9 60045 site]
activity (ZFN 60045 (synthetic)): 65.4 % indel

GGGGTGGTGACTCACCGGCCACGTGGGC (double strand) [mouse PCSK9 site F right]
activity (ZFN 60461 (synthetic)): 85.8 % indel | activity (ZFN 64982 (synthetic)): 95.9 % indel | activity (ZFN 64983 (synthetic)): 95.2 % indel

TGCATGCTCATGGAATGGGGAGATGCCA (double strand) [human TTR exon 3 right]
activity (ZFN 60751 (synthetic)): 63.5 % indel | activity (ZFN 67493 (synthetic)): 59.2 % indel | activity (ZFN 67495 (synthetic)): 61.8 % indel

CCGCCCGGTACCGTGGAGGGGTAATCCG (double strand) [human PCSK9 60133 site]
activity (ZFN 60133 (synthetic)): 72.6 % indel
